Laboratory results as given in patent US20030148956A1 (PROCTER AND GAMBLE, published 2003).
Ends that are not written are not given here.

T1: corticotropin releasing factor 2 receptor
T1 sequence (Q13324 whole entry, species assumed, looked up): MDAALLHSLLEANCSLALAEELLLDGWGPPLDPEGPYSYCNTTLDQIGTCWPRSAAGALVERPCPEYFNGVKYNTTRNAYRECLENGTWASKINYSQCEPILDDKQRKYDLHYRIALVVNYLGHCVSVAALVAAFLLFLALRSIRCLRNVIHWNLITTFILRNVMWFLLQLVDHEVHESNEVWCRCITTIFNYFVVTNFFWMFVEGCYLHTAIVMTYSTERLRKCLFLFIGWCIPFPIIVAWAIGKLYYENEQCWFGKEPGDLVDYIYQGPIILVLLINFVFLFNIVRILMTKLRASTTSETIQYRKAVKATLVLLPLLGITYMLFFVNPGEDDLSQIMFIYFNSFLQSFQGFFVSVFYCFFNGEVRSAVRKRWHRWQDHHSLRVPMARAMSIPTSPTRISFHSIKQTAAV


Columns and labels:
[1] = molecular target: T1, corticotropin releasing factor 2 …; assay: cell-based or functional assay
[2] = molecular target: corticotropin releasing factor 1 receptor; assay: cell-based or functional assay

| Binder | CRF2R EC50 [1] | CRF2R Emax % [1] | CRF1R EC50 [2] | CRF1R Emax % [2] |
| --- | --- | --- | --- | --- |
| IVLSLDVPIGLLQILLEQARHAHAHAHAHAQAHILAHV-NH2 [SEQ ID NO 369] | 0.1 µM | 18% | 1 µM | 4% |
| ZGPPISIDLPFQLLRKAIEIEKQEKEKQQATTNARLLDRV (C-terminal amide) [SEQ ID NO 363] | 0.0251 µM | 100% | 1 µM | 20% |
| ZGPPISIDLPLYLLRKMIEIEKQEKEKQQATTNARILARV (C-terminal amide) [SEQ ID NO 353] | 0.00475 µM | 89.9% | 0.23 µM | 92.2% |
| IVLSLDVPIGLLQILLEQARARAAREQATTNARILARVM-NH2 [SEQ ID NO 368] | 0.0504 µM | – | 1 µM | – |
| DNPSLSIDLPLILLRTLLELEKTQSQRERAEQNARIFDRV-NH2 [SEQ ID NO 337] | 0.0239 µM | 86.7% | 1 µM | 36.5% |
| DNPSLSIDLPLQLLRTLLELEKTQSQRERAEQNAIIFASV-NH2 [SEQ ID NO 342] | 0.0203 µM | 92.2% | 1 µM | 19.6% |
| IVLSLDVPIGLLQILLEQARARAAREQATTNARILARVM-NH2 [SEQ ID NO 356] | 0.083 µM | – | 1 µM | – |
| Ac-IVLSLDVPIGLLQILLEQARARAAREQATTNARILARV-NH2 [SEQ ID NO 354] | 0.00648 µM | 100% | 1 µM | 13.4% |
| PSLSIDLPLLLLRTLLELEKTQSQRERAEQNAIIFASV-NH2 [SEQ ID NO 344] | 0.0043 µM | – | 0.65 µM | – |
| DNPSLSIDLPQYLLRTLLELARTQSQRERAEQNAIIFASV-NH2 [SEQ ID NO 339] | 0.1 µM | 47.9% | 1 µM | 13.2% |
| IVLSLDVPIHLLQILLEQARARAAREQATTNARILARV-NH2 [SEQ ID NO 371] | 0.00662 µM | 97% | 1 µM | 22% |
| DNPSLSIDLPLILLRTLLELEKTQSQRERAEQNARIFARV-NH2 [SEQ ID NO 335] | 0.0281 µM | 91% | 1 µM | 49.5% |
| DNPSLSIDLPLFLLRTLLELEKTQSQRERAEQNARIFDRV-NH2 [SEQ ID NO 336] | 0.0178 µM | 100% | 1 µM | 59.9% |
| IVLSLDVPIGLLQILLEKAAAEAEAAAKAAQEQILAHV-NH2 [SEQ ID NO 366] | 0.1 µM | 46% | 1 µM | 9% |
| ZGPPISIDLPLQLLRKVIEIEKQEKEKQQAANNALLLATI (C-terminal amide) [SEQ ID NO 349] | 0.0138 µM | 100% | 1 µM | 44.2% |
| ZGPPISIDLPFQLLRKAIEIEKQEKEKQQAANNALLLATI (C-terminal amide) [SEQ ID NO 364] | 0.0132 µM | 100% | 1 µM | 27% |
| ZGPPISIDLPFQLLRKIIEIEKQEKEKQQAANNALLLATI (C-terminal amide) [SEQ ID NO 362] | 0.00439 µM | 100% | 0.386 µM | 100% |
| ZGPPISIDLPFQLLRKAIEIEKQEKEKQQAANNALLLDTI (C-terminal amide) [SEQ ID NO 365] | 0.0234 µM | 94% | 1 µM | 21% |
| ZGPPISIDLSLELLRKMIEIEKQEKEKQQAANNRLLLDTI (C-terminal amide) [SEQ ID NO 355] | 0.00603 µM | 95% | 0.018 µM | 100% |
| ZGPPISIDLPFQLLREVIEIEKQEKEKQQAANNALLLATI (C-terminal amide) [SEQ ID NO 359] | 0.0231 µM | 100% | 0.23 µM | 100% |
| ZGPPISIDLPFQLLRVLIEIEKQEKEKQQAANNALLLATI (C-terminal amide) [SEQ ID NO 361] | 0.00637 µM | 99% | 0.149 µM | 100% |
| ZGPPISIDLPFQLLRKVIEIEKQEKEKQQAANNALLLATI (C-terminal amide) [SEQ ID NO 352] | 0.00826 µM | 83.7% | 0.78 µM | 82.6% |
| DNPSLSIDLPLFLLRTLLELEKTQSQRERAEQNAIIFASV-NH2 [SEQ ID NO 343] | 0.0136 µM | 96.5% | 0.783 µM | 62.5% |
| IVLSLDVPIGLLQILLEQARHAAAHAAAHAQAHILAHV-NH2 [SEQ ID NO 367] | 0.1 µM | 18% | 1 µM | 6% |
| Ac-PSLSIDLPLLLLRTLLELEKTQSQRERAEQNAIIFASV-NH2 [SEQ ID NO 348] | 0.00577 µM | – | 0.63 µM | – |

Results, then the binder that gave them:

| CRF2R EC50 [1] | CRF2R Emax % [1] | CRF1R EC50 [2] | CRF1R Emax % [2] | Binder |
| --- | --- | --- | --- | --- |
| 0.00556 µM | 100% | 0.099 µM | 100% | ZGPPISIDLPFQLLRILIEIEKQEKEKQQAANNALLLAT (C-terminal amide) [SEQ ID NO 358] |
| 0.0397 µM | 100% | 1 µM | 18.8% | DNPSLSIDLPLILLRTLLELEKTQSQRERAEQNAIIFASV-NH2 [SEQ ID NO 345] |
| 0.0129 µM | 97.4% | 1 µM | 85.7% | ZGPPISIDLPFQLLRKVIEIEKQEKEKQQATTNARLLDRV (C-terminal amide) [SEQ ID NO 351] |
| 0.0224 µM | – | 1 µM | – | Ac-DNPSLSIDLPLLLLRTLLELEKTQSQRERAEQNAIIFASV-NH2 [SEQ ID NO 347] |
| 0.00883 µM | 95.5% | 0.851 µM | 82.3% | DNPSLSIDLPLLLLRTLLELEKTQSQRERAEQNARIFARV-NH2 [SEQ ID NO 341] |
| 0.00848 µM | – | 1 µM | – | DNPSLSIDLPLLLLRTLLELEKTQSQRERAEQNAIIFASV-NH2 [SEQ ID NO 346] |
| 0.00644 µM | 100% | 0.331 µM | 100% | ZGPPISIDLPFQLLRKLIEIEKQEKEKQQAANNALLLATI (C-terminal amide) [SEQ ID NO 357] |
| 0.0116 µM | 98.1% | 1 µM | 48% | ZGPPISIDLPFQLLRKVIEIEKQEKEKQQAANNALLLDTI (C-terminal amide) [SEQ ID NO 350] |
| 0.00612 µM | 93% | 0.157 µM | 100% | ZGPPISIDLPFQLLRLLIEIEKQEKEKQQAANNALLLATI (C-terminal amide) [SEQ ID NO 360] |
| 0.00799 µM | 100% | 0.74 µM | 96% | DNPSLSIDLPLLLLRTLLELARTQSQRERAEQNARIFARV-NH2 [SEQ ID NO 340] |
| 0.0193 µM | 77.5% | 1 µM | 41.1% | DNPSLSIDLPLLLLRTLLELEKTQSQRERAEQNARIFDRV-NH2 [SEQ ID NO 338] |
| 0.051 µM | 75% | 1 µM | 33% | IVLSLDVSIGLLQILLEQARARAAREQATTNARILARV-NH2 [SEQ ID NO 370] |
